Source: patent US20230331828A1 (published 2023)

Columns and labels:
[1] = target: aggregated Aβ42 (heterogeneous Aβ 42 aggregate mixture); experiment: competition ELISA; FIG 20A
[2] = target: aggregated Aβ42 (heterogeneous Aβ 42 aggregate mixture); experiment: competition ELISA; FIG 5A; competition with HBP biotin
[3] = target: aggregated Aβ42 (heterogeneous Aβ 42 aggregate mixture); experiment: competition ELISA; FIG 20B
[4] = target: aggregated Aβ42 (heterogeneous Aβ 42 aggregate mixture); experiment: competition ELISA; FIG 5B; competition with HBP biotin

Chain of aggregated Aβ42 (heterogeneous Aβ 42 aggregate mixture) (P05067 672-713): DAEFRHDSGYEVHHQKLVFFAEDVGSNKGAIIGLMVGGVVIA

Binder	IC50 [1] [µg/mL]	IC50 [2] [µg/mL]	IC50 [3] [µg/mL]	IC50 [4] [µg/mL]
h2731 (antibody, V domains shown) VH: EVQLLESGGGLVQPGGSLRLSCAASGFTFSNYGMSWVRQAPGKGLEWVASIRSGSGRTYYSDNVKGRFTISRDNSKNTLYLQMNSLRAEDTAVYYCVRYDHYSGSSDYWGQGTLVTVSS VL: DVVMTQSPLSLPVTLGEPASISCKSSQSLLDYDGKTYLNWLLQKPGQSPQRLIYRVTNRDTGVPDRFSGSGSGTDFTLKISRVEAEDVGVYYCWQGTHFPRSFGQGTKVEIK	5	4.76	–	–
h2831 (antibody, V domains shown) VH: EVQLLESGGGLVQPGGSLRLSCAASGFTFSNFGMSWVRQAPGKGLEWVASVRSGSGRTYYSDNVKGRFTISRDNSKNTLYLQMNSLRAEDTAVYYCVRYDHYSGTSDYWGQGTLVTVSS VL: DVVMTQSPLSLPVTLGEPASISCKSSQSLLDYDGKTYLNWLLQKPGQSPQRLIYRVTNRDTGVPDRFSGSGSGTDFTLKISRVEAEDVGVYYCWQGTHFPRSFGQGTKVEIK	–	–	9.9	9.02
h2726 (antibody, V domains shown) VH: EVQLLESGGGLVQPGGSLRLSCAASGFTFSNYGMSWVRQAPGKGLEWVASIRSGSGRTYYSDNVKGRFTISRDNSKNTLYLQMNSLRAEDTAVYYCVRYDHYSGSSDYWGQGTLVTVSS VL: DVVMTQSPLSLPVTPGEPASISCKSSQSLLDYDGKTYLNWLLQKPGQSPQRLIYKVSNRDSGVPDRFSGSGSGTDFTLKISRVEAEDVGVYYCWQGTHFPRTFGQGTKVEIK	–	–	9	8.41
h2931 (antibody, V domains shown) VH: EVQLLESGGGLVQPGGSLRLSCAASGFTFSNFGMSWVRQAPGKGLEWVASVRSGSGRTYYSDNVKGRFTISRDNSKNTLYLQMNSLRAEDTAVYYCVRYDHYTGTSDYWGQGTLVTVSS VL: DVVMTQSPLSLPVTLGEPASISCKSSQSLLDYDGKTYLNWLLQKPGQSPQRLIYRVTNRDTGVPDRFSGSGSGTDFTLKISRVEAEDVGVYYCWQGTHFPRSFGQGTKVEIK	–	6.27	–	–
